{
  "source": "patent US20120039878A1",
  "target": "murine monoclonal antibody 2A4 (ATCC Accession Number PTA-9662)",
  "sequence (VL, as listed by the source, chain 1 of 2)": "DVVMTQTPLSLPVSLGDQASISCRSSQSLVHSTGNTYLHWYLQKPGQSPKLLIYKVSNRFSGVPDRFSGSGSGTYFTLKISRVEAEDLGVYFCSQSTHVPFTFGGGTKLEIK",
  "sequence (VH, as listed by the source, chain 2 of 2)": "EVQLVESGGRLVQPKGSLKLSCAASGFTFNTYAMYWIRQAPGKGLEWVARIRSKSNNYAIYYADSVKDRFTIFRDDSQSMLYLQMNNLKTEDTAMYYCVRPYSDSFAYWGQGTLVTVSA",
  "test": "Competition ELISA; mouse AA (AEF) in solution competing with adsorbed human AA amyloid extract for mAb 2A4",
  "data": [
    {"substance": "murine AA amyloid (AA fibrils; amyloid enhancing factor extract, AEF)", "values": [
      {"measurement": "IC50", "result": 14.7, "unit": "µg/mL"}
    ]}
  ]
}
